Results published in patent publication US20260266848A1, “COMPOSITIONS AND METHODS FOR DIAGNOSING AND TREATING DYSTONIA” (Duke University, priority 2023, published 2026).

B1: Ephx1 (protein, UniProt Q9D379 1-455, looked up)
Epoxide hydrolase 1: MWLELILASVLGFVIYWFVSRDKEETLPLEDGWWGPGSKPSAKEDESIRPFKVETSDEEIKDLHQRIDRFRASPPLEGSRFHYGFNSSYLKKVVSFWRNEFDWRKQVEILNQYPHFKTKIEGLDIHFIHVKPPQLPSGRTPKPLLMVHGWPGSFYEFYKIIPLLTDPKTHGLSDEHVFEVICPSIPGYGFSEASSKKGLNSVATARIFYKLMSRLGFQKFYIQGGDWGSLICTNIAQMVPNHVKGLHLNMSFISRNIYSLTPLLGQRFGRFLGYTEKDLELLYPFKEKVFYNIMRESGYLHIQATKPDTVGCALNDSPVGLAAYILEKFSTWTKSEYRELEDGGLERKFSLEDLLTNIMIYWTTGTIVSSQRFYKENLGQGVMVHRHEGMKVFVPTGYSAFPSEILHAPEKWVKVKYPKLISYSYMERGGHFAAFEEPKLLAQDIRKFVSLAELQ
B2: Tars (protein, UniProt Q9D0R2 1-722, looked up)
Threonine--tRNA ligase 1, …: MSQEKASSPSGKMDGEKPVDASEEKRKEGGKKKSKDGGGDGGRAELNPWPEYINTRLDMYNKLKAEHDSILAEKAAKDSKPIKVTLPDGKQVDAESWKTTPYQIACGISQGLADNTVVAKVNKVVWDLDRPLETDCTLELLKFEDEEAQAVYWHSSAHIMGEAMERVYGGCLCYGPPIENGFYYDMYLEEGGVSSNDFSSLETLCKKIIKEKQTFERLEVKKETLLEMFKYNKFKCRILNEKVNTPTTTVYRCGPLIDLCRGPHVRHTGKIKTLKIHKNSSTYWEGKADMETLQRIYGISFPDPKLLKEWEKFQEEAKNRDHRKIGRDQELYFFHELSPGSCFFLPKGAYIYNTLMEFIRSEYRKRGFQEVVTPNIFNSRLWMTSGHWQHYSENMFSFEVEKEQFALKPMNCPGHCLMFDHRPRSWRELPLRLADFGVLHRNELSGALTGLTRVRRFQQDDAHIFCAMEQIEDEIKGCLDFLRTVYSVFGFSFKLNLSTRPEKFLGDIEIWNQAEKQLENSLNEFGEKWELNPGDGAFYGPKIDIQIKDAIGRYHQCATIQLDFQLPIRFNLTYVSHDGDDKKRPVIVHRAILGSVERMIAILTENYGGKWPFWLSPRQVMVVPVGPTCDEYAQKVRQQFHDAKFMADTDLDPGCTLNKKIRNAQLAQYNFILVVGEKEKASGTVNIRTRDNKVHGERTVEETVRRLQQLKQTRSKQAEEEF
B3: Apex1 (protein, UniProt P28352 2-317, looked up)
DNA repair nuclease/redox …: PKRGKKAAADDGEEPKSEPETKKSKGAAKKTEKEAAGEGPVLYEDPPDQKTSPSGKSATLKICSWNVDGLRAWIKKKGLDWVKEEAPDILCLQETKCSENKLPAELQELPGLTHQYWSAPSDKEGYSGVGLLSRQCPLKVSYGIGEEEHDQEGRVIVAEFESFVLVTAYVPNAGRGLVRLEYRQRWDEAFRKFLKDLASRKPLVLCGDLNVAHEEIDLRNPKGNKKNAGFTPQERQGFGELLQAVPLADSFRHLYPNTAYAYTFWTYMMNARSKNVGWRLDYFLLSHSLLPALCDSKIRSKALGSDHCPITLYLAL
B4: Lipg (protein, UniProt Q9WVG5 21-500, looked up)
Endothelial lipase: SITTLRPQGSLRDEHHKPTGVPATARPSVAFNIRTSKDPEQEGCNLSLGDSKLLENCGFNMTAKTFFIIHGWTMSGMFESWLHKLVSALQMREKDANVVVVDWLPLAHQLYTDAVNNTRVVGQRVAGMLDWLQEKEEFSLGNVHLIGYSLGAHVAGYAGNFVKGTVGRITGLDPAGPMFEGVDINRRLSPDDADFVDVLHTYTLSFGLSIGIRMPVGHIDIYPNGGDFQPGCGFNDVIGSFAYGTISEMVKCEHERAVHLFVDSLVNQDKPSFAFQCTDSSRFKRGICLSCRKNRCNNIGYNAKKMRKKRNSKMYLKTRAGMPFKVYHYQLKVHMFSYNNSGDTQPTLYITLYGSNADSQNLPLEIVEKIELNATNTFLVYTEEDLGDLLKMRLTWEGVAHSWYNLWNEFRNYLSQPSNPSRELYIRRIRVKSGETQRKVTFCTQDPTKSSISPGQELWFHKCQDGWKMKNKTSPFVNLA
B5: Eif2b1 (protein, UniProt Q99LC8 1-305, looked up)
Translation initiation factor …: MEDGELIEYFKSQMKGDPKMASAVAAIQTLLEFLKRDKGETLQGLRANLTYAIKTLCGVDSSVAVSSGGELFLRFISLTSLEYSDYSKCKKIMIERGELFLRRISLSRNKIANLCHTFIKDGARILTHAYSRVVLRVLEEAVAAKKRFSVYITESQPDLSGKKMAKALSHLNVPVTVVLDAAVGYIMEKADLVIVGAEGVVENGGIINKIGTNQMAVCAKAQNKPFYVVAESFKFVRLFPLNQEDVPDKFKYKADTLKSVQTGQDLKEEHPWVDYTSPSLITLLFTDLGVLTPSAVSDELIKLYL
B6: Spr (protein, UniProt P35270 1-261, looked up)
Sepiapterin reductase: MEGGLGRAVCLLTGASRGFGRTLAPLLASLLSPGSVLVLSARNDEALRQLEAELGAERSGLRVVRVPADLGAEAGLQQLLGALRELPRPKGLQRLLLINNAGSLGDVSKGFVDLSDSTQVNNYWALNLTSMLCLTSSVLKAFPDSPGLNRTVVNISSLCALQPFKGWALYCAGKAARDMLFQVLALEEPNVRVLNYAPGPLDTDMQQLARETSVDPDMRKGLQELKAKGKLVDCKVSAQKLLSLLEKDEFKSGAHVDFYDK
B7: Shmt2 (protein, UniProt Q9CZN7 30-504, looked up)
Serine …: KVAQTQAGEAAGGWTGQESLSDSDPEMWELLQREKDRQCRGLELIASENFCSRAALEALGSCLNNKYSEGYPGKRYYGGAEVVDEIELLCQRRALEAFDLDPAQWGVNVQPYSGSPANLAAYTALLQPHDRIMGLDLPDGGHLTHGYMSDVKRISATSIFFESMPYKLNPQTGLIDYDQLALTARLFRPRLIIAGTSAYARLIDYARMREVCDEVRAHLLADMAHISGLVAAKVIPSPFKYADVVTTTTHKTLRGARSGLIFYRKGVRTVDPKTGKEIPYTFEDRINFAVFPSLQGGPHNHAIAAVAVALKQACTPMFREYSLQVLRNAQAMADALLKRGYSLVSGGTDTHLVLVDLRPKGLDGARAERVLELVSITANKNTCPGDRSAITPGGLRLGAPALTSRQFREDDFRRVVDFIDEGVNIGLEVKRKTAKLQDFKSFLLKDPETSQRLANLRQQVEQFARGFPMPGFDER
B8: Gmpr2 (protein, UniProt Q99L27 1-348, looked up)
GMP reductase 2: MPHIDNDVKLDFKDVLLRPKRSTLKSRSEVELTRSFSFRNSKQMYSGIPVIAANMDTVGTFEMARVLCKFSLFTAIHKHYSIHQWQEFASQNPDCLECLAASSGSGSADFEQLEQILEAIPQVKYICLDVANGYSEHFVEFVKDVRKRFPQHTIMAGNVVTGEMVEELILSGADIIKVGIGPGSVCTTRKKTGVGYPQLSAVMECADAAHGLKGHIISDGGCSCPGDVAKAFGAGADFVMLGGMLAGHSESGGELIERDGKKYKLFYGMSSEMAMKKYSGGVAEYRASEGKIVEVPFKGDVEHTIRDILGGIRSTCTYVGAAKLKELSRRTTFIRVTQQVNPIFSNSQ
B9: Hmgcs1 (protein, UniProt Q8JZK9 1-520, looked up)
Hydroxymethylglutaryl-CoA …: MPGSLPLNAEACWPKDVGIVALEIYFPSQYVDQAELEKYDGVDAGKYTIGLGQARMGFCTDREDINSLCLTVVQKLMERHSLSYDCIGRLEVGTETIIDKSKSVKSNLMQLFEESGNTDIEGIDTTNACYGGTAAVFNAVNWVESSSWDGRYALVVAGDIAIYATGNARPTGGVGAVALLIGPNAPLIFDRGLRGTHMQHAYDFYKPDMLSEYPVVDGKLSIQCYLSALDRCYSVYRKKIRAQWQKEGKDKDFTLNDFGFMIFHSPYCKLVQKSLARMFLNDFLNDQNRDKNSIYSGLEAFGDVKLEDTYFDRDVEKAFMKASSELFNQKTKASLLVSNQNGNMYTSSVYGSLASVLAQYSPQQLAGKRVGVFSYGSGLAATLYSLKVTQDATPGSALDKITASLCDLKSRLDSRTCVAPDVFAENMKLREDTHHLANYIPQCSIDSLFEGTWYLVRVDEKHRRTYARRPFTNDHSLDEGMGLVHSNTATEHIPSPAKKVPRLPATSAESESAVISNGEH

Key:
[1] = tested on: DYT-TOR1A MEF EVs; assay: Quantitative LC-MS/MS proteomics of EVs from drug-treated DYT-TOR1A MEF cultures (ritonavir, salubrinal); assay type: cell-based, mouse; set-up: key to RTV Corrective Direction / RTV Corrective Direction, Grwd1 / RTV Corrective Direction, Srrm2 / RTV Corrective Direction, Rbm17 / RTV Corrective Direction, Dcaf8 / RTV Corrective Direction, Edil3 / RTV Corrective Direction, Timp3 / RTV Corrective Direction, Heatr3 / RTV Corrective Direction, Brd4 / RTV Corrective Direction, P3h4 / RTV Corrective Direction, Pacsin3 / RTV Corrective Direction, Naa50 / RTV Corrective Direction, Lpar6 / RTV Corrective Direction, Ndrg1 / RTV Corrective Direction, Kntc1 / RTV Corrective Direction, Cdk11b / RTV Corrective Direction, Sumo1 / RTV Corrective Direction, Lsm4 / RTV Corrective Direction, Hmga2 / RTV Corrective Direction, Cstf1 / RTV Corrective Direction, Tes / RTV Corrective Direction, Sbno1 / RTV Corrective Direction, Unc119b / RTV Corrective Direction, Cfdp1 / RTV Corrective Direction, Sec61b: YES = protein abundance effect opposite to DYT/WT; conditions: EV protein abundance; for RTV Corrective Direction: DYT + RTV (ritonavir) vs DYT, direction compared with DYT/WT; for DYT + RTV/DYT Cohen's d: ritonavir (RTV)-treated DYT vs DYT
[2] = tested on: WT MEF EVs; assay: Quantitative LC-MS/MS proteomics of EVs from ISRIB-treated WT MEF cultures; assay type: cell-based, mouse; set-up: key to ISRIB and DYT Parallel Direction / ISRIB and DYT Parallel Direction, Ctdsp1 / ISRIB and DYT Parallel Direction, Pcdh19 / ISRIB and DYT Parallel Direction, Tspan7 / ISRIB and DYT Parallel Direction, Myo1e / ISRIB and DYT Parallel Direction, Plpp3 / ISRIB and DYT Parallel Direction, Sh3bp4 / ISRIB and DYT Parallel Direction, Dnajc7 / ISRIB and DYT Parallel Direction, Drg1 / ISRIB and DYT Parallel Direction, Maea: YES = protein abundance effect similar to DYT/WT; conditions: EV protein abundance; for WT + ISRIB/WT Cohen's d: ISRIB-treated WT vs WT; for ISRIB and DYT Parallel Direction: WT + ISRIB vs WT, direction compared with DYT/WT

Row | Molecule | RTV Corrective Direction [1] | DYT + RTV/DYT Cohen's d [1] | WT + ISRIB/WT Cohen's d [2] | ISRIB and DYT Parallel Direction [2]
1 | B1 | YES | 1.48 | −0.32 | YES
2 | B2 | YES | 6.28 | −1.16 | YES
3 | B3 | YES | 8.06 | −0.67 | YES
4 | B4 | YES | 2.88 | −2.47 | YES
5 | B5 | YES | 5.03 | −0.70 | YES
6 | B6 | YES | 3.69 | −3.64 | YES
7 | B7 | YES | 8.98 | −1.44 | YES
8 | B8 | YES | 5.10 | −2.98 | YES
9 | B9 | YES | 7.26 | −0.06 | YES
